Reference: US20180155451A1 (published 2018)

Legend:
FcγRIIb = target: T1, FcγRIIb (human, UniProt P31994 43-217); experiment: SPR (Biacore), captured antibody, soluble FcγR; relative to GpH7-A5/GpH7-B3/GpL16-k0
T1 construct: extracellular domain; also called FcgRIIb; 2b; not shown: His tag at the C terminus
T1 sequence (looked up): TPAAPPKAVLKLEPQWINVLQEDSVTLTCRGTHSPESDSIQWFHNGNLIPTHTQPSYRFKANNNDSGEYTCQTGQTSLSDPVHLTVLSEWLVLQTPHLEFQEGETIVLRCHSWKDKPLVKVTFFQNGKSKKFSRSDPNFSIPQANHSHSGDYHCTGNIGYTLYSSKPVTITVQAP

FcγRIa [1] = target: T2, FcγRIa (human, UniProt P12314 16-292); experiment: as above
T2 construct: extracellular domain; also called FcgRI; 1a; not shown: His tag at the C terminus

FcγRIa [2] = target: T2, FcγRIa; experiment: SPR; He/Con_1a divided by He/Con_2b (FcγRIIb as reference)

T2 sequence (P12314 16-292): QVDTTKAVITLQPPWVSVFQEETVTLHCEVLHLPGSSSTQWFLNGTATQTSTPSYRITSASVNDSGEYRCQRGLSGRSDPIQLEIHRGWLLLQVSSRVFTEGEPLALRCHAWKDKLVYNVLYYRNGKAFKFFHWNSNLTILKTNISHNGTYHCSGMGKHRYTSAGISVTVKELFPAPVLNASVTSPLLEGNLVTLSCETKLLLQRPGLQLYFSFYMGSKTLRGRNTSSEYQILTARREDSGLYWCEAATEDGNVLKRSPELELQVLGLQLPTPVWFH

B1: GpH7-A5/GpH7-B3 variant D265_01G/GpL16-k0 (antibody, human IgG1, kappa)
heavy 1: not shown
heavy 2: not shown
light: DIVMTQSPLSLPVTPGEPASISCQASESLVHSNRNTYLHWYLQKPGQSPQLLIYKVSNRFSGVPDRFSGSGSGTDFTLKISRVEAEDVGVYYCSQNTHVPPTFGQGTKVEIERTVAAPSVFIFPPSDEQLKSGTASVVCLLNNFYPREAKVQWKVDNALQSGNSQESVTEQDSKDSTYSLSSTLTLSKADYEKHKVYACEVTHQGLSSPVTKSFNRGEC
notes: He Ab: mutation only in the GpH7-B3 H chain; EU numbering; also called He Ab
In the case of B1, the He/Con_2b (FcγRIIb) is reported as 16.1 relative, HeCon Ab = 100, the He/Con_1a (FcγRIa [1]) is reported as 79.9 relative, HeCon Ab = 100 and the “Ia/IIb He_1a/2b” value (FcγRIa [2]) is reported as 4.95 ratio.

B2: GpH7-A5/GpH7-B3 variant D265_02A/GpL16-k0 (antibody, human IgG1, kappa)
heavy 1: not shown
heavy 2: not shown
light: DIVMTQSPLSLPVTPGEPASISCQASESLVHSNRNTYLHWYLQKPGQSPQLLIYKVSNRFSGVPDRFSGSGSGTDFTLKISRVEAEDVGVYYCSQNTHVPPTFGQGTKVEIERTVAAPSVFIFPPSDEQLKSGTASVVCLLNNFYPREAKVQWKVDNALQSGNSQESVTEQDSKDSTYSLSSTLTLSKADYEKHKVYACEVTHQGLSSPVTKSFNRGEC
notes: as for B1
B2 was tested, and the He/Con_2b (FcγRIIb) was 19.9 relative, HeCon Ab = 100, the He/Con_1a (FcγRIa [1]) was 84.5 relative, HeCon Ab = 100 and the “Ia/IIb He_1a/2b” value (FcγRIa [2]) was 4.25 ratio.

B3: GpH7-A5/GpH7-B3 variant D265_03V/GpL16-k0 (antibody, human IgG1, kappa)
heavy 1: not shown
heavy 2: not shown
light: DIVMTQSPLSLPVTPGEPASISCQASESLVHSNRNTYLHWYLQKPGQSPQLLIYKVSNRFSGVPDRFSGSGSGTDFTLKISRVEAEDVGVYYCSQNTHVPPTFGQGTKVEIERTVAAPSVFIFPPSDEQLKSGTASVVCLLNNFYPREAKVQWKVDNALQSGNSQESVTEQDSKDSTYSLSSTLTLSKADYEKHKVYACEVTHQGLSSPVTKSFNRGEC
notes: as for B1
In the case of B3, the He/Con_2b (FcγRIIb) is reported as 3.2 relative, HeCon Ab = 100, the He/Con_1a (FcγRIa [1]) is reported as 55.7 relative, HeCon Ab = 100 and the “Ia/IIb He_1a/2b” value (FcγRIa [2]) is reported as 17.3 ratio.

B4: GpH7-A5/GpH7-B3 variant D265_04F/GpL16-k0 (antibody, human IgG1, kappa)
heavy 1: not shown
heavy 2: not shown
light: DIVMTQSPLSLPVTPGEPASISCQASESLVHSNRNTYLHWYLQKPGQSPQLLIYKVSNRFSGVPDRFSGSGSGTDFTLKISRVEAEDVGVYYCSQNTHVPPTFGQGTKVEIERTVAAPSVFIFPPSDEQLKSGTASVVCLLNNFYPREAKVQWKVDNALQSGNSQESVTEQDSKDSTYSLSSTLTLSKADYEKHKVYACEVTHQGLSSPVTKSFNRGEC
notes: as for B1
In the case of B4, the He/Con_2b (FcγRIIb) is reported as 3.2 relative, HeCon Ab = 100, the He/Con_1a (FcγRIa [1]) is reported as 53 relative, HeCon Ab = 100 and the “Ia/IIb He_1a/2b” value (FcγRIa [2]) is reported as 16.8 ratio.

B5: GpH7-A5/GpH7-B3 variant D265_06M/GpL16-k0 (antibody, human IgG1, kappa)
heavy 1: not shown
heavy 2: not shown
light: DIVMTQSPLSLPVTPGEPASISCQASESLVHSNRNTYLHWYLQKPGQSPQLLIYKVSNRFSGVPDRFSGSGSGTDFTLKISRVEAEDVGVYYCSQNTHVPPTFGQGTKVEIERTVAAPSVFIFPPSDEQLKSGTASVVCLLNNFYPREAKVQWKVDNALQSGNSQESVTEQDSKDSTYSLSSTLTLSKADYEKHKVYACEVTHQGLSSPVTKSFNRGEC
notes: as for B1
B5 was tested, and the He/Con_2b (FcγRIIb) was 10 relative, HeCon Ab = 100, the He/Con_1a (FcγRIa [1]) was 75.7 relative, HeCon Ab = 100 and the “Ia/IIb He_1a/2b” value (FcγRIa [2]) was 7.57 ratio.

B6: GpH7-A5/GpH7-B3 variant D265_07I/GpL16-k0 (antibody, human IgG1, kappa)
heavy 1: not shown
heavy 2: not shown
light: DIVMTQSPLSLPVTPGEPASISCQASESLVHSNRNTYLHWYLQKPGQSPQLLIYKVSNRFSGVPDRFSGSGSGTDFTLKISRVEAEDVGVYYCSQNTHVPPTFGQGTKVEIERTVAAPSVFIFPPSDEQLKSGTASVVCLLNNFYPREAKVQWKVDNALQSGNSQESVTEQDSKDSTYSLSSTLTLSKADYEKHKVYACEVTHQGLSSPVTKSFNRGEC
notes: as for B1
B6 was tested, and the He/Con_2b (FcγRIIb) was 1.3 relative, HeCon Ab = 100, the He/Con_1a (FcγRIa [1]) was 54.4 relative, HeCon Ab = 100 and the “Ia/IIb He_1a/2b” value (FcγRIa [2]) was 41.2 ratio.

B7: GpH7-A5/GpH7-B3 variant D265_08L/GpL16-k0 (antibody, human IgG1, kappa)
heavy 1: not shown
heavy 2: not shown
light: DIVMTQSPLSLPVTPGEPASISCQASESLVHSNRNTYLHWYLQKPGQSPQLLIYKVSNRFSGVPDRFSGSGSGTDFTLKISRVEAEDVGVYYCSQNTHVPPTFGQGTKVEIERTVAAPSVFIFPPSDEQLKSGTASVVCLLNNFYPREAKVQWKVDNALQSGNSQESVTEQDSKDSTYSLSSTLTLSKADYEKHKVYACEVTHQGLSSPVTKSFNRGEC
notes: as for B1
For B7, the He/Con_2b (FcγRIIb) was 4.6 relative, HeCon Ab = 100, the He/Con_1a (FcγRIa [1]) was 56.8 relative, HeCon Ab = 100 and the “Ia/IIb He_1a/2b” value (FcγRIa [2]) was 12.4 ratio.

B8: GpH7-A5/GpH7-B3 variant D265_10E/GpL16-k0 (antibody, human IgG1, kappa)
heavy 1: not shown
heavy 2: not shown
light: DIVMTQSPLSLPVTPGEPASISCQASESLVHSNRNTYLHWYLQKPGQSPQLLIYKVSNRFSGVPDRFSGSGSGTDFTLKISRVEAEDVGVYYCSQNTHVPPTFGQGTKVEIERTVAAPSVFIFPPSDEQLKSGTASVVCLLNNFYPREAKVQWKVDNALQSGNSQESVTEQDSKDSTYSLSSTLTLSKADYEKHKVYACEVTHQGLSSPVTKSFNRGEC
notes: as for B1
With B8 the He/Con_2b (FcγRIIb) was 38.2 relative, HeCon Ab = 100, the He/Con_1a (FcγRIa [1]) was 101 relative, HeCon Ab = 100 and the “Ia/IIb He_1a/2b” value (FcγRIa [2]) was 2.66 ratio.

B9: GpH7-A5/GpH7-B3 variant D265_11K/GpL16-k0 (antibody, human IgG1, kappa)
heavy 1: not shown
heavy 2: not shown
light: DIVMTQSPLSLPVTPGEPASISCQASESLVHSNRNTYLHWYLQKPGQSPQLLIYKVSNRFSGVPDRFSGSGSGTDFTLKISRVEAEDVGVYYCSQNTHVPPTFGQGTKVEIERTVAAPSVFIFPPSDEQLKSGTASVVCLLNNFYPREAKVQWKVDNALQSGNSQESVTEQDSKDSTYSLSSTLTLSKADYEKHKVYACEVTHQGLSSPVTKSFNRGEC
notes: as for B1
B9 was tested, and the He/Con_2b (FcγRIIb) was 14.9 relative, HeCon Ab = 100, the He/Con_1a (FcγRIa [1]) was 43.2 relative, HeCon Ab = 100 and the “Ia/IIb He_1a/2b” value (FcγRIa [2]) was 2.9 ratio.
